# Assay: soluble on expression in E. coli; label from the status in PepcDB or PDB records
row,Sequence,soluble on expression in E. coli
1,SLIRSMTGFGSASKTQDDLSVSVELKSVNYRFKEVNARLPRPLLYFEDKLKQTILQHIQRGRIELFVSVDSDMLVEKRLEIDWPLLDEFVAAARDMKKRYQLSAEPDVMDFFKLDHVVQVHEEQTQNDKLEALIIDAAEEAVKGLCEMREKEGLLLAKDCLMHIDQLEELVRETELLAADVVSRYRERLYARIKEWTEDVLDESRLVTECAIFADRSDITEEITRLKSHFAQFRDILASGGAVGRKLDFLVQELNREANTIGSKANDHQITKLVVEMKSSIEKIKEQVQNIE,soluble
2,MEGNHEEPQGGLEELSGRWHSVALASNKSDLIKPWGHFRVFIHSMSAKDGNLHGDILIPQDGQCEKVSLTAFKTATSNKFDLEYWGHNDLYLAEVDPKSYLILYMINQYNDDTSLVAHLMVRDLSRQQDFLPAFESVCEDIGLHKDQIVVLSDDDRCQGSRDLEHHHHHH,soluble
3,MYLLEINVFEGLNKKELSMIEVAHAILEQHADVMDFSDLVNQIQNYLGKSDSEIRDQLAQFYTDLNIDGSFISLGDNRWGLRSWYPIDSIDEEVTHGLEEDEEDAPRRRKRKKVNAFITNPNDEDVIDYNDDDPEDAELTNDDEEDILYDDEEDEDEEIKAYNSDLQEIGADSDDDEEDIPQIEEDLTIIDDDDVEDEDDFDDEYSEE,not soluble
4,MADYKVKDISLAEWGRKAIELAENEMPGLMELRREYGPSQPLKGAKIAGCLHMTVQTAVLIETLKALGAELRWSSCNIFSTQDNAAAAIAKTGVPVFAWKGETDEEYEWCIAQTVKGFSGDGLPNMILDDGGDLTNLVIDRYPELVPKIFGISEETTTGVKNLYKRLSKGNLPISAINVNDSVTKSKFDNLYGCRESLVDGIKRATDVMIAGKTCCVCGYGDVGKGCAAALRAFGARVVVTEVDPINALQASMEGYQVALVEDVMADAHIFVTTTGNDDIITSDHFPHMRDDAIVCNIGHFDTEIQVGWLEANAKEHVEIKPQVDRYTMENGRHIILLAKGRLVNLGCASGHPSFVMSNSFTNQVLAQIELWSNRDNGKYPRGDKAGVFFLPKALDEKVAALHLAHVGAKLTKLTPKQAEYINCPVNGPFKPDHYRY,soluble
5,MKVLAFDTSSKALSLAILEDKQVLAETTINIKKNHSITLMPAIDFLMASLDWTPKDLDRIVVAEGPGSYTGLRIAVATAKTLAHTLNIELVGMSSLLALVPHQQEGLFVPLMDARRNNVYAGFYENAKPVMAEAHLSFEEVLEKVKGTSQVTFVGEVGPFVEQIQKHLPRTDYKETLPNAANLALLAWDKEADSLHDFVPNYLKRVEAEENWLKNHTESGESYIKRL,not soluble
6,MGSDKIHHHHHHMKELKIIFIPGWGMEEGVWTLVLPYFKEYSVQCINWRNVKEQSEFAGRIIDVAKDENVILVGWSLGALAAVQAHKKIQTKGIVLIGGTPKFTNTSDYTSGWNALHVERLKKNVARKKEDTLKRFYENMFTKDELKENTSFEEIALNFKGDSIQSLQLGLDYLIETDMRNELIDVKVPLLLLHGEQDVICPLSAAHSMTENANAKLKVVSEAGHALCVTNFEYCANEIIQFVEGIRHDQQNVTTKTI,not soluble
7,MRGSHHHHHHTDPALRAQDAAPRLTFTLRDEERLMMKIGVFVPIGNNGWLISTHAPQYMPTFELNKAIVQKAEHYHFDFALSMIKLRGFGGKTEFWDHNLESFTLMAGLAAVTSRIQIYATAATLTLPPAIVARMAATIDSISGGRFGVNLVTGWQKPEYEQMGIWPGDDYFSRRYDYLTEYVQVLRDLWGTGKSDFKGDFFTMNDCRVSPQPSVPMKVICAGQSDAGMAFSARYADFNFCFGKGVNTPTAFAPTAARMKQAAEQTGRDVGSYVLFMVIADETDDAARAKWEHYKAGADEEALSWLTEQSQKDTRSGTDTNVRQMADPTSAVNINMGTLVGSYASVARMLDEVASVPGAEGVLLTFDDFLSGIETFGERIQPLMQCRAHLPALTQEVAGLCGR,soluble
8,MGIHKPKFYAVRAGRDKGVFSSWEECRKAIYGFSGAVYRSFPTLEEAQAWFKGETLSDPLKAEDDSLRDDRTEYDVYTDGSYVNGQYAWAYAFVKDGKVHYEDADVGKNPAAATMRNVAGEIAAALYAVKKASQLGVKIRILHDYAGIAFWATGEWKAKNEFTQAYAKLMNQYRGIYSFEKVKAHSGNEFNDYVDMKAKSALGIRDLEHHHHHH,not soluble
9,AHHHHHHGSNTEKYLAKGLEDVYIDQTNICYIDGKEGKLYYRGYSVEELAELSTFEEVVYLLWWGKLPSLSELENFKKELAKSRGLPKEVIEIMEALPKNTHPMGALRTIISYLGNIDDSGDIPVTPEEVYRIGISVTAKIPTIVANWYRIKNGLEYVPPKEKLSHAANFLYMLHGEEPPKEWEKAMDVALILYAEHEINASTLAVMTVGSTLSDYYSAILAGIGALKGPIHGGAVEEAIKQFMEIGSPEKVEEWFFKALQQKRKIMGAGHRVYKTYDPRARIFKKYASKLGDKKLFEIAERLERLVEEYLSKKGISINVDYWSGLVFYGMKIPIELYTTIFAMGRIAGWTAHLAEYVSHNRIIRPRLQYVGEIGKKYLPIELRR,not soluble
10,MTSVNKKRNARKNQEPTSNMTIETEDGTQADRPKKRPAKKRSKVVRRAAQYGDVNEPILRDFVKATIQTGVKQLSTEFLNLKMETQPCNKPKTGHEGHPEKNRYKDVYCIDDTRVVLKWPEDSPSDYIHANWVKINGANKFICTQGPTEKTVDDFYRLIWQEKAPCVVMLCNIMECGKKKCEQYWPETADGQMILMDGKLTVKIAEPAKEVEQNILLMKITVIDDKGTSHNFEHWQWKAWPDRGVPELPMALKTASPIVVHCSAGIGRTGSIVGLEIALVKFCAGEKVVLKDIVKEIRNQRHGSVQTDAQYLFMHRVLLALAENRKITSPELSAFVAEYDKVIATKNG,not soluble
11,MGSDKIHHHHHHMHHIGLTRPYSWGIKNFELITVTEKLNIHIQGQGFPILGLHGHPGSGRSLSVFTNHLSKRYQTIAPDLRGYGTSRFRGNFTMQDHLTDLEALLDRLQIEKCLVLGWSLGGILAMELALRLPQRITGLILVATAARPRGNHPPISWQDNLYTGVAGLLNYIKPGWRWNIETFGKRSLFRYLIQQHTPTAYNYIAREALPAYLQTSPSATRALNSALRLGYNRLADLEQIHCPSLVLAGAQDKHITADSSLETAQHLKQSQWQCYPHTAHLFPWEIPQQVINDIDLWLANNSQVMSN,not soluble
12,MSLEYKYDVVIVGLGPAGSSLAYLLKDTGLKVAGLDIADFNRVWGKPCGDAIGKGHFLETGLPLPKGEAMMQVVNAVDIYSPSEEVKIRLSEPEGGFMIDRNKYGLQLLEEAQKSGVDVYLKTHALSPIIENGRLVGVYAKRHGEDGDVNVKFYSKIIVDATGSGGAIKRKLPSSWPVVEPLKPTDSAVAYRKIVELDYDIEEPDVIRIYINADIAPGGYWWLFPKGRRIANIGIGVQRGRGYPHPRHLYEKYLDKRPDTGRVVRLLNEAGALLPTRRPANTIVWDNFVSIGDNAYTVNPVHGGGMGYAMTAAMYAARGIEKAFEKGDYSVETLWDINLGYMRSTGAKQAGLDILRIYLQTLTNEEVEWAMRNGLANVDNLVEASTQGEIKRLNLTLLEKAKVLARLLGRPTKLMELLTVAEYMSKVKKLYYEYPERPDGLPRWVDRVETLYREYKARLGIDWEGHHHHHH,soluble
13,RMPGLPDIAFTGDGQMTKHEIRALTLCALAPAAGELLWDVGGGSGTVAIEWMRTHPLCRAVTFERSAARVDQIESNAAALGVPSLAVFGDAPAAFEDVPPELSTPDAIFVGGGVTQDGLLDECWSRLRVGGRMVVNAVTAESEALLLQWFSNCGGQLRKFQVYRGEPLGGFTAWRPQLPVAQWSVTKQSKGDAA,not soluble
14,MIALFNKLLDWFKALFWKEEMELTLVGLQYSGKTTFVNVIASGQFNEDMIPTVGFNMRKITKGNVTIKLWDIGGQPRFRSMWERYCRGVSAIVYMVDAADQEKIEASKNELHNLLDKPQLQGIPVLVLGNKRDLPGALDEKELIEKMNLSAIQDREICCYSISCKEKDNIDITLQWLIQHSKSRRS,soluble
15,MSLIDWTRPLADRMRPRLLTEFVGQSHLLDAGKPLREVIEAGRPHSMVFWGPPGTGKTTLARLIAEATEAEFLALSAVMAGVKEIRQASATGQANRARGRQTILFVDEVHRFNKAQQDAFLPFIEDGTVVFIGATTENPSFELNNALLSRLRTYVLRPLGEAALARIIDCALEDSERGLGTKQLALSEQARSLLIQAADGDARSALSLLEVAADLSAAEARIDIDLIRAAAAGGRARFDKRGEAFYDEISALHKAVRGSAPDAALYWLCRMLAGGCDPLYLARRLLRMASEDIGNADPRGLQVALNAWQAQERLGSPEGELAIAQAVVYLASVPKSDAVYRAYRLAAEDVRSHGSLEVPLALRNAPTRLLRELGYGRGYRYAHDEPEGYAAGAEYFPAELIGTRYYHPADRGLERQIGERLRRLRELDRATEGHHHHHH,not soluble
16,MGSDKIHHHHHHMKMLVGKIPSELLAKILEKLKPGDKVIVGPKVGIDATAIDFGDYVLVASTDPITGTEEKIGFYAVNINANDVATFGARPKWFLVTILLPEGSEFNDVITIMDEVREVAEGMGISIVGGHTEVTPGLKKPIVVGTMLGEVEKENLVVPNPRPGDAIILTKGAGIEGTSIIAHEREEELKGVFGSNFVERAKAFINEISIVREALLSREFATAMHDPTEGGIANGLHEMADINGLGFRIFANKVIIREETRKICHFYDLDPLALISSGALLISTPRDHAKFLIERLLSHGIQASIIGEFLAEKKRVIIENGAERPLKRPESDELWKVV,not soluble
17,MSKEYHIRELIMRLARLDVSESWAEDLNPAQRAVLEYLSRANKFSRSPSHVAAFLGTTRGTISQTFKALLQKNYVTEKRSQSDKRVISFDLTQKGRALLARPRLLISGLESLDSSEQNALLSTLQSTLNSLLEQNKGQPFGLCKECRHFTSSNGGGYCNLLSEKLAPPETEQICHEQDPL,not soluble
18,MGSDKIHHHHHHMSQFEQDAHLKQQSDRALSDHELQADHTRQKTHELPAHFDFQQAGKQVLSIERDGLAQLDQYIDDNFTLACKNIFHCKGKVVVMGMGKSGHIGCKIAATFASTGTPAFFVHPGEASHGDLGMVTPHDIVIAISNSGESHEILSLIPVLKRQKVFLICMTSAPESTMGKAADIHLCVHVPQEACPLGLAPTTSTTATLVMGDALAVALLQARGFTAEDFALSHPGGALGRKLLLRVSDIMHSGDEIPHVPHDASLRDALVEITRKNLGMTVICEADMKIQGIFTDGDLRRIFDMNIDLNSARIADVMTAGGIRVAPQTLAVDALNLMQSRHITSVLVAENDRLVGIVHMHDMLRAGVV,not soluble
19,MGSDKIHHHHHHMNSPADYDPKPRRASVAVDVGGVIVGGGAPVVVQSMTNTDTADIDATVRQVAALFQAGSEMVRITVDRDESAAAVPKIRERLLRLGMDVPLIGDFHYIGHKLLADHPACAEALAKYRINPGNVGFKDKKDKQFGEIVEMAIRYDKPVRIGVNWGSLDQELLTTLMDRNKEQGFPLSARQVTREAIVQSALISAELAEEIGLPRNRIILSAKVSQVQDLIAVYSMLSERSNHALHLGLTEAGMGSKGIVASSAAMGYVLQHGIGDTIRVSLTPEPNGDRTREVQVAQELLQVMGFRQFIPVVAACPGCGRTTSTVFQELAQNIQNDIRKNMPIWREKYPGVEALNVAVMGCIVNGPGESKHADIGISLPGTGESPAAPVFIDGEKALTLRGPNIAADFEALVIDYIEKRFGQKDAAE,not soluble
